Data reported in patent publication US20220306744A1 (CRESCENDO BIOLOGICS, published 2022).

How the values were obtained:
[1] = molecular target: T1, human PD-1 expressed on cells (CHO TREX human PD1 cell line, full-length human PD-1 sequence) (human, UniProt Q15116 21-288); experiment: cell-based or functional assay
[2] = molecular target: T2, recombinant human PD-1 Fc chimera (human, UniProt Q15116 25-167); experiment: SPR Biacore T200, single cycle kinetics, human PD-1-hu Fc amine coupled to CM5, 1:1 model
T2 construct: Bought protein (R&D 1086-PD in the HTRF assay); also called human PD-1-hu Fc; huPD-1Fc; not shown: human Fc
T2 sequence (Q15116 25-167 limits assumed, stated change not applied): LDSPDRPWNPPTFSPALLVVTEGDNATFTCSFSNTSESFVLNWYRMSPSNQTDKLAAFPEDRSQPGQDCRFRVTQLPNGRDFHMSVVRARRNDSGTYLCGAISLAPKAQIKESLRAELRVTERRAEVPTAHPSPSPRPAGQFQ
Experimental: Binding kinetics of certain humabodies binding to human PD-1-hu Fc were measured by surface plasmon resonance (SPR) technology using Biacore T200 instrument (GE Healthcare). Recombinant human PD-1-hu Fc was immobilized by standard amine coupling to CM5 sensors chip (GE Healthcare) using 0.1 mg/ml solution of antigen in 10 mM sodium acetate at pH 5.5. For the reference flow cell, a blank immobilisation was carried out. Single cycle kinetics assays were used to study the interaction, a five point, three-fold dilution series of each Humabody® VH was made with a top concentration of 30 nM. The binding kinetics were followed by flowing the Humabody® VH over the chip surface in HBS EP+ buffer at a flow rate of 30 μl/min. The contact time for each of the association steps was 180 seconds and the dissociation step was varied between 1200-3600 seconds. The data was fitted to a 1:1 binding model after double reference subtraction using the Biacore T200 Evaluation software.

[3] = molecular target: T1, human PD-1 expressed on cells (CHO TREX …); experiment: worded summary of the screens
[4] = molecular target: T1, human PD-1 expressed on cells (CHO TREX …); experiment: cell-based or functional assay; remark: listed apart in the source

T1 sequence (Q15116 21-288): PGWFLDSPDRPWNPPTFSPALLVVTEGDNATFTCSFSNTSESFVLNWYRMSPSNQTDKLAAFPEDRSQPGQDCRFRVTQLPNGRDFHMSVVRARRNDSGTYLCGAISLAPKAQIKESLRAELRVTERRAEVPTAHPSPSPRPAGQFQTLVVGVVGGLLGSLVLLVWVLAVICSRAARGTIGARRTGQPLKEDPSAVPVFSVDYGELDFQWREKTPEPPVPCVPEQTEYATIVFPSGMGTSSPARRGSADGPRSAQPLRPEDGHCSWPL

Binder	EC50 (M), NFAT-Luciferase reporter gene assay [1] [M]	binding result [3]	also measured
1.1b-2GS-1.1a (other, Biparatopic VH-linker-VH; His tag implied by the assays; not in the chain) QVQLVESGGGLVKPGGSLRLSCAASGFTFSDYTMTWMRQAPGKGLEWVSYISTGGTIKYYTDSVKGRFTISRDNAKNSLYLQMNSLRADDTAVYYCAREAPLRLGESPHDAFDIWGQGTMVTVSSGGGGSGGGGSEVQLLESGGGSVQPGRSLRLSCAASGFTFDDHAMHWVRQAPGKGLEWVSGISWNSGSMGYADSVKDRFTISRDNAKSSLYLQMNSLRAEDTALYYCVREKGPGLTGSTADYYGLDVWGQGTMVTVSS	7.2e-09	–	Kd [2]: 0.0346 nM; koff [2]: 1.08e-05 s⁻¹; kon [2]: 313000 M⁻¹ s⁻¹
1.77b-2GS-1.21a (other) EVQLVESGGGLVKPGGSLRLSCAASGFTFSDSSMTWMRQAPGKGLEWVSYISSGGGVKFYTDSVKGRFTISRDNAKNSLYLQMNSLRAEDTAVYYCAREAPLRLGESPHDAFDISGQGTMVTVSSGGGGSGGGGSEVQLVESGGGLVQPGRSLRLSCAASGFTFDDYAMHWVRQAPGKDLEWVSGISWNGGSMGYAASVKGRFTISRDNAKNSLYLQMNSLRAEDTALYYCVREKGPGLTGSTADYYGLDVWGQGTMVTVSS	2.1e-09	–	–
1.1a-4GS-1.57b (other) EVQLLESGGGSVQPGRSLRLSCAASGFTFDDHAMHWVRQAPGKGLEWVSGISWNSGSMGYADSVKDRFTISRDNAKSSLYLQMNSLRAEDTALYYCVREKGPGLTGSTADYYGLDVWGQGTMVTVSSGGGGSGGGGSGGGGSGGGGSQVQLVESGGGLVKPGGSLRLSCAASGFTFSDNSMTWMRQAPGKGLEWVSYISSGGGVIFYADSVKGRFTISRDNAKNSLYLQMNSLRADDTAVYYCAREAPLRLGESPHDAFDISGQGTMVTVSS	3.9e-09	–	–
1.25b (VHH) VHH: QVTLKESGGGLVKPGGSLRLSCAASGFTFSDYYMSWFRQAPGKEREWISFISSSGSTTYYADSVKGRFTISRDNAKNSLYLQMNSLRAEDTAVYYCAREAPLRLGESPHDAFDFWGQGTMVTVSS	–	binds	–
1.12b (VHH) VHH: EVQLLESGGGVVKPGGSLRLSCAASGFTFSDYYMGWIRQAPGKGLEWISYISSSGSTIYYADSVKGRFTISRDNAKNSLYLQMNSLRAEDTAVYYCAREAPLRLGESPHDAFDIWGQGTMVTVSS	–	binds	–
1.26b (VHH) VHH: QVTLKESGGGLVKPGGSLRLSCAASGFTFSDNSMSWIRQAPGKGLEWVSYISSSGSTIYYADSVKGRFTISRDNAKNSLYLQMNTLRAEDTAVYYCAKEAPLRLGESPHDAFDIWGQGTMVTVSS	–	binds	–
1.15b (VHH) VHH: QVQLVESGGGLVKPGGSLRLSCAASGFTFSDNSMSWIRQAPGKGLEWVSYISSSGSTIYYADSVKGRFTISRDNAKNSLYLQMNTLRAEDTAVYYCAKEAPLRLGESPHDAFDIWGQGTMVTVSS	–	binds	–
1.64b-4GS-1.1a (other) EVQLVESGGGLVKPGGSLRLSCAASGFTFSDSSMTWMRQAPGKGLEWVSYISSGGGVKFYADSVKGRFTISRDNAKNSLYLQMNSLRADDTAVYYCAREAPLRLGESPHDAFDISGQGTMVTVSSGGGGSGGGGSGGGGSGGGGSEVQLLESGGGSVQPGRSLRLSCAASGFTFDDHAMHWVRQAPGKGLEWVSGISWNSGSMGYADSVKDRFTISRDNAKSSLYLQMNSLRAEDTALYYCVREKGPGLTGSTADYYGLDVWGQGTMVTVSS	3e-09	–	–
1.77b-1GS-1.21a (other) EVQLVESGGGLVKPGGSLRLSCAASGFTFSDSSMTWMRQAPGKGLEWVSYISSGGGVKFYTDSVKGRFTISRDNAKNSLYLQMNSLRAEDTAVYYCAREAPLRLGESPHDAFDISGQGTMVTVSSGGGGSEVQLVESGGGLVQPGRSLRLSCAASGFTFDDYAMHWVRQAPGKDLEWVSGISWNGGSMGYAASVKGRFTISRDNAKNSLYLQMNSLRAEDTALYYCVREKGPGLTGSTADYYGLDVWGQGTMVTVSS	2.3e-09	–	EC50 uM, PathHunter Checkpoint assay (PD-1 signalling) [4]: 0.00059 µM; Max. % increase in response over baseline, PathHunter Checkpoint assay [4]: 1330%
1.77b-4GS-1.77b (other) EVQLVESGGGLVKPGGSLRLSCAASGFTFSDSSMTWMRQAPGKGLEWVSYISSGGGVKFYTDSVKGRFTISRDNAKNSLYLQMNSLRAEDTAVYYCAREAPLRLGESPHDAFDISGQGTMVTVSSGGGGSGGGGSGGGGSGGGGSEVQLVESGGGLVKPGGSLRLSCAASGFTFSDSSMTWMRQAPGKGLEWVSYISSGGGVKFYTDSVKGRFTISRDNAKNSLYLQMNSLRAEDTAVYYCAREAPLRLGESPHDAFDISGQGTMVTVSS	–	–	EC50 uM, PathHunter Checkpoint assay (PD-1 signalling) [4]: 0.0002 µM; Max. % increase in response over baseline, PathHunter Checkpoint assay [4]: 48.5%
1.92b-4GS-1.99a (other) EVQLVESGGGLVKPGGSLRLSCAASGFTFSDESMTWMRQAPGKGLEWVSYISSGGGVKFYADSVKGRFTISRDNAKNSLYLQMNSLRAEDTAVYYCAREAPLRLGESPHDAFDISGQGTMVTVSSGGGGSGGGGSGGGGSGGGGSEVQLVESGGGVVRPGGSLRLSCAASGFTFDDYAMSWVRQAPGKGLEWVSGITWNGGSTGYADSVKGRFTISRDNAKNSLYLQMNSLRAEDTALYYCVRDKYSYAWSYDGFDIWGQGTMVTVSS	1e-09	–	–
1.92b-4GS-1.103a (other) EVQLVESGGGLVKPGGSLRLSCAASGFTFSDESMTWMRQAPGKGLEWVSYISSGGGVKFYADSVKGRFTISRDNAKNSLYLQMNSLRAEDTAVYYCAREAPLRLGESPHDAFDISGQGTMVTVSSGGGGSGGGGSGGGGSGGGGSEVQLVESGGGVVRPGGSLRLSCAASGFTFDDYAMSWVRQAPGKGLEWVSGITWNGGSTGYADSVKDRFTISRDNAKNSLYLQMNSLRAEDTALYYCVRDKYSYAWSYDDFDIWGQGTMVTVSS	1.2e-09	–	–

Second part, led by results:

EC50 (M), NFAT-Luciferase reporter gene assay [1] [M]	binding result [3]	Binder	also measured
–	binds	1.24b (VHH) VHH: QVTLKESGGGLVKPGGSLRLSCAASGFTFSDYDMYWIRQAPGKGLEWVSYISRGGSVTYYADSVKGRFTISRDNAKNALYLQMNSLRAEDMAVYFCATEAPLRLGETPHAAFDIWGQGTMVTVSS	–
–	binds	1.33b (VHH) VHH: QITLKESGGGLVKPGGSLRLSCAASGFTFSDYDMYWVRQAPGKGLEWVSYISRGGSVTYYADSVKGRFTISRDNAKNALYLQMNSLRAEDMAVYFCATEAPLRLGETPHAAFDIWGQGTMVTVSS	–
–	binds	1.28b (VHH) VHH: QITLKESGGGLVKPGGSLRLSCAASGFTFSDYDMYWIRQAPGKGLEWVSYISRGGSVTYYADSVKGRFTISRDNAKNALYLQMNSLRAEDMAVYFCATEAPLRLGETPHAAFDIWGQGTMVTVSS	–
–	binds	1.52a (VHH) VHH: EVQLLESGGGVVRPGGSLRLSCAASGFTFDDYGMSWVRQPPGKGLEWVSGISRNGGSAGYSDSAKDRFTISRDNAKNSLYLQMNSLRADDTAMYYCAREKYSSGWSYDDFDIWGQGTMVTVSS	–
–	binds	1.53a (VHH) VHH: QVQLVESGGGVVRPGGSLRLSCAASGFTFDDYGMSWVRQSPGKGLEWVSGISRNGGSAGYSDSAKDRFTISRDNAKNSLYLQMNSLRADDTAMYYCAREKYSSGWSYDDFDIWGQGTMVTVSS	–
–	binds	1.54a (VHH) VHH: QVQLVESGGGVVRPGGSLRLSCAASGFTFDDYGMSWVRQPPGKGLEWVSGISRNGGSAGYSDSAKDRFTISRDNAKNSLYLQMNSLRADDTAMYYCAREKYSSGWSYDDFDIWGQGTMVTVSS	–
–	binds	1.57a (VHH) VHH: QVQLVESGGGVVRPGGSLRLSCAASGFTFDDYGMSWVRQAPGKGLEWVSGISRNGGSTGYTASVKDRFTISRDNAKNSLYLQMNSLRADDTAMYYCAREKYSSGWSYDDFDIWGQGTMVTVSS	–
–	binds	1.55a (VHH) VHH: EVQLVESGGGVVRPGGSLRLSCAASGFTFDDYGMSWVRQPPGKGLEWVSGISRNGGSAGYSDSAKDRFTISRDNAKNSLYLQMNSLRADDTAMYYCAREKYSSGWSYDDFDIWGQGTMVTVSS	–
–	binds	1.56a (VHH) VHH: QVQLVESGGGVVRLGGSLRLSCAASGFSFVDYGMSWVRQAPGQGLEWVSGISRNGGSTGYADSVKDRFTISRDNAKNTLYLQMNSLRAEDTALYYCARDPYSSGWSYDSFDIWGQGTMVTVSS	–
–	binds	1.40b (VHH) VHH: EVQLVESGGGLVKPGGSLRLSCAASGFTFSDSSMSWIRQAPGRGLEWISYISSGGGIIYYTDSVKGRFTISRDNAKNSLYLQMNSLRVEDTAVYYCAKEAPLRLGESPHDAFDIWGHGTMVTVSS	–
